Measurements published in PMC4047826.

Target: Dead streptavidin subunit with a polyaspartate insertion in the 3/4 loop (Dd) (Streptomyces avidinii) (UniProt P22629)
Test: mixed refold, anion-exchange chromatography and SDS-PAGE without boiling; subunits refolded together from inclusion bodies into PBS; tetramers resolved on Mono-Q (20 mM Tris-HCl pH 8.0, 0-1 M NaCl gradient); peaks run on SDS-PAGE unboiled (tetramer) or boiled (subunit composition), Coomassie

## Dead streptavidin subunit with a polyaspartate insertion in the 3/4 loop (Dd) (from UniProt P22629 37-163) (domain or fragment)
  stoichiometry N: 4
